Measured values reported in the RNAGym collection of RNA variant scans (doi:10.1073/pnas.2313332121).
This sample holds only a part of the variants without activity.

B1: TPR 5TU (parent)
chain: GGAUCUUCUCGAUCUAACAAAAAAGACAAAUCUGCCACAAAGCUUGAGAGCAUCUUCGGAUGCAGAGGCGGCAGCCUUCGGUGGCGCGAUAGCGCCAACGUUCUCAACUAUGACACGCAAAACGCGUGCUCCGUUGAAUGGAGUUUAUCAUG

Variants of: B1
Test: polymerase ribozyme fitness, log enrichment relative to wild type (log ratio); higher = more active; in vitro selection for triplet polymerase activity
Method in brief: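 Each subunit of a heterodimeric triplet polymerase ribozyme was mutagenized into a library by PCR, transcribed, and subjected to one round of in vitro selection, run in triplicate. Libraries were annealed with a biotinylated primer, the partner subunit and triplets, incubated frozen at −7 °C, and extended constructs were gel-excised, captured on streptavidin beads and recovered by RT-PCR. Input and output libraries were sequenced on Illumina, keeping genotypes with ≥10 input reads and ≥1 read per output. Fitness is log base 2 of genotype enrichment divided by wild-type enrichment, from inverse-variance-weighted replicate averages.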

Point of comparison: U55A C79U C85U, “polymerase ribozyme fitness (log ratio)” value -3.3. Against it:
- C54U U82G — higher, 0.0533
- U56A C96A A138G — lower, ≤ -4.2
- C54U A64G C116G U139G — lower, ≤ -4.2
- C54A C105G U130C — higher, -2.7
- U55G G62A — higher, -2.48
- U56A C72U C76U C85U — higher, -1.17
- C54U C95U G133C — higher, -2.19
- C54A C57U C95U — higher, -1.9
- C54A A73U C87U — within 0.2 log units, -3.49
- C54A C75U C93U — higher, -2.29
- U55C G59A C96A — higher, -3.02
- U55A C85A G141C — higher, -1.86
- C54A A91G U104G U127A G152A — lower, ≤ -4.2
- C54G A60G C95G — higher, -2.44
- U55C G70A — lower, -3.5
- C54G G92A C132A — lower, ≤ -4.2
- U55A C93G G143A — lower, -3.93
- U55A C76A A115G A121C — higher, -1.09
- C54U G71A A97U C105U A106C — lower, ≤ -4.2
- U55G A91U A106G G117U — lower, -4.18
- C54G C75G C87A — lower, ≤ -4.2
- U53G U61A — within 0.2 log units, -3.21
- U56A C75A G141A — lower, ≤ -4.2
- C54A G70C G88A C93G U134A U146A — lower, ≤ -4.2
- U55G U90A — lower, ≤ -4.2
- U55G A60G G133U G136C — lower, ≤ -4.2
- C54U U78G C96G A113U — lower, ≤ -4.2
- U55C A98G A113U A142G — higher, -2.98
- U55G C118U — higher, -1.23
- U55A G81A G86A U109G A150G — lower, ≤ -4.2
- C54G A147C — higher, -1.47
- C54A U56A C93A A98U A138C U151G — lower, ≤ -4.2
- C54U C75U G84C A98U A113G C129U — lower, ≤ -4.2
- C54U U90C G94A C131U — lower, ≤ -4.2
- C54U C63U G94U G143A — higher, -2.26
- U55A C57U G81A G84A — higher, -0.555
- C54U G92C A121U — higher, -0.244
- U55A G83A — higher, -0.501
- U53G C125U — higher, -1.66
- U53G C103A C105G U130A — lower, ≤ -4.2
- U53G U55A — higher, -1.92
- C54G C99G G136U — within 0.2 log units, -3.14
- U55A C72A U139C — lower, ≤ -4.2
- C54A G59U A60C G83A C116A — higher, -2.11
- C54U U135A G136C — lower, -3.76
- U56A C96U G126A — higher, -0.336
- U55A U56A U78C G83U A89U — higher, -0.955
- U55A G81C G84U C116A — higher, -2.11
- U56A C149A — lower, -3.67
- U55A A89C — higher, -0.409
- U55A A89G — higher, -1.16
- U53G G92C C93A — lower, ≤ -4.2
- U55G C87A C93A C99U U134A — lower, ≤ -4.2
- C54A C96G A97C G143C — lower, ≤ -4.2
- C54A U56A C85G U101C U134A U148C — lower, ≤ -4.2
- U56A A107U — higher, -2.87
- U53G G74A C114G — lower, ≤ -4.2
- U56A A73G C76U — higher, 0.764
- C54U C57U G100C — lower, ≤ -4.2
- C54A C85U C105U A142C — higher, -2.12
- U55A C63U C85U C105U — higher, 0.719
- C54G G83A C96U A110G C132U A142C — lower, ≤ -4.2
- U55A G100C G126U G128C — lower, ≤ -4.2
- C54A C116G — higher, -0.685
- U55G C108G — lower, ≤ -4.2
- C54A U56G U78G U82G C114A U144C — lower, ≤ -4.2
- C54U G92U A147U — higher, 0.0812
- U55A C85A G100A A121G C131A — lower, ≤ -4.2
- U55G G58C — higher, -0.558
- U55C A119G U145A — higher, -0.113
- U53G C75G C76U C96A A115C — lower, ≤ -4.2
- U55G C69U — higher, -2.89
- U55G C69U U78A A91U C93U G141A — lower, ≤ -4.2
- U56A C69A — higher, -1.46
- U55A A60G C99G G141C — higher, -2.6
- C54U U55A G86A C116G — higher, -2.2
- U55A U56A G71A U82G U102G — lower, ≤ -4.2
- U56A A73C G84U U127C — lower, ≤ -4.2
- U55A U139A — lower, -4.05
- U55A A91G — higher, -2.86
- C54A U101G C108U A115U G117U C129U G133A — lower, ≤ -4.2
- C54U C85G C93U A97C A137U U139G — lower, ≤ -4.2
- C54U U148C — higher, -1.84
- U55A A115U U127G U135A U145A — higher, -1.32
- U55A A60U U101G — higher, -0.433
- U55G U127G — higher, -2.9
- C54U C95A — higher, -1.44
- C54G C75U G94A — higher, -1.51
- U55A A60C G62A G81A C85U G133C — lower, ≤ -4.2
- C54U C76U C123A U139G U146C A150C — lower, ≤ -4.2
- U55A C87A C108G — lower, ≤ -4.2
- C54U A60C C75A A91U C96U A97G A107C G136A A137U — lower, ≤ -4.2
- U56A C96U A119U — higher, -0.585
- C54U G83C C85G A138G — lower, ≤ -4.2
- U55A G92A C125A — within 0.2 log units, -3.46
- C54G G84A — higher, -1.74
- C54A U61A C93G C149G — lower, ≤ -4.2
- U56A C96G — higher, -0.228
- U56A C93U A147G — higher, -1.96
- U55A U56G G80A — higher, -1.37
- U55A A89C A119C — higher, -0.892
- U55C U61A U82A — higher, -2.36
- U55A C95U — higher, -0.137
- U55G C93A A98U A142U — lower, -3.92
- U55G C87U G92A U101G G143U — within 0.2 log units, -3.33
- C54A U55G A107U U109C G117A C118U A121C — lower, ≤ -4.2
- C54G A97C G124A — higher, -0.735
- C54U U61A A106G G152C — lower, ≤ -4.2
- U55C G62A A64C C72G G140U U144A — lower, ≤ -4.2
- C54A G94U C105U — higher, -2.47
- U55A C63U A142U — higher, -0.552
- U55A C79U — higher, -2.74
- U55A A121C — higher, -0.369
- C54U C93U A98G — higher, -1.41
- U55A C95U C105A C108G — lower, ≤ -4.2
- C54U U55A — higher, -0.284
- U53G G58A — higher, -1.53
- U55G G59C G86A C103U U146C — higher, -2.47
- U55A G59A C75U G92U C99G C129G U139G — lower, ≤ -4.2
- U55A C96U U127C U134C — the same, -3.3
- U55A A64G G84A C93G A137G A142U — lower, ≤ -4.2
- C54U G84U — higher, -2.22
- U56A C96U U101C U139G — higher, -0.437
- U55A C105G — higher, -1.73
- U55A C105A — higher, -0.692
- C54G A89U C95U A97C — higher, -2.48
- C54A G86U A110C — lower, ≤ -4.2
- U53G G59U C125U G141C — lower, -3.86
- U55G C69A A97U A119U G141A — higher, -1.39
- C54U C95U A98G A142U — higher, -1.61
- U55A G84U A113C — lower, -3.62
- U55A C76A G84U C116U A137U — lower, ≤ -4.2
- U56A A89G — higher, -2.69
- C54G C85A G92C G133U U146G — lower, ≤ -4.2
- U55A G126C — higher, 1.42
- U55A G126A — higher, -1.02
- C54U A73G G83U C95G G100U U135A — lower, ≤ -4.2
- C54G G59C G83U C87U G94A U102C U148G — lower, ≤ -4.2
- C54U U144A — higher, -0.258
- U55A C85U — higher, -0.644
- C54A C95U A106C — higher, -2.19
- C54A U56G C95A A120G — higher, -1.33
- C54U C79U A115G A120G A122U G141U — lower, ≤ -4.2
- C54U C96A A97G — higher, -1.12
- C54G G83U G141U — higher, -1.56
- U55C C72U A150U — higher, 0.059
- C54A G59A C87U — higher, -1.95
- C54U C69G C85G — lower, -3.9
- U56A C118G A150G — higher, -2.41
- C54A A121U G141C — higher, -1.65
- C54A G70A — lower, -3.79
- C54G C76A C85G — higher, -2.78
- C54U C85G A91U — lower, ≤ -4.2
- C54U U151C — lower, -3.65
- U56A G58A C103A C125A — higher, -0.231
- U56A A113U — higher, -1.87
- U55C C93G — lower, -3.57
- C54U U56A G58A C85U C95A — higher, -1.2
- U55G G83C U135A G136A C149A — lower, ≤ -4.2
- U55A U101G A107G A138C G141A — lower, ≤ -4.2
- U56A C123U — higher, 0.128
- U55A G58C A97G — higher, 0.512
- C54G G140U — lower, -3.63
- C54G A73G C79A U82G C87U A122U G141C — lower, ≤ -4.2
- C54U U56A A60U G70U A115G A150C — lower, ≤ -4.2
- C54G C108U — lower, -4.19
